US9150630B2, “Use of Idbf” (Industry-Academic Cooperation Foundation, Yonsei University, priority 2008, dated 2015)
Primed or numbered codes have the meaning given here. Ends that are not written are not given here. FITC′ = not defined here

B1: Wnt3a: Wnt ligand used at 100 ng/ml to activate the Wnt/β-catenin signaling pathway (protein, UniProt P56704 19-352, looked up)
Protein Wnt-3a: SYPIWWSLAVGPQYSSLGSQPILCASIPGLVPKQLRFCRNYVEIMPSVAEGIKIGIQECQHQFRGRRWNCTTVHDSLAIFGPVLDKATRESAFVHAIASAGVAFAVTRSCAEGTAAICGCSSRHQGSPGKGWKWGGCSEDIEFGGMVSREFADARENRPDARSAMNRHNNEAGRQAIASHMHLKCKCHGLSGSCEVKTCWWSQPDFRAIGDFLKDKYDSASEMVVEKHRESRGWVETLRPRYTYFKVPTERDLVYYEASPNFCEPNPETGSFGTRDRTCNVSSHGIDGCDLLCCGRGHNARAERRREKCRCVFHWCCYVSCQECTRVYDVHTCK
B2: Idbf: novel Dvl-binding protein (SEQ ID NO: 1), overexpressed by transfection of pcDNA3.1-Idbf-Myc (protein, listed as Homo sapiens)
chain: MSSLGGGSQDAGGSSSSSTNGSGGSGSSGPKAGAADKSAVVAAAAPASVADDTPPPERRNKSGIISEPLNKSLRRSRPLSHYSSFGSSGGSGGGSMMGGESADKATAAAAAASLLANGHDLAAAMAVDKSNPTSKHKSGAVASLLSKAERATELAAEGQLTLQQFAQSTEMLKRVVQEHLPLMSEAGAGLPDMEAVAGAEALNGQSDFPYLGAFPINPGLFIMTPAGVFLAESALHMAGLAEYPMQGELASAISSGKKKRKRCGMCAPCRRRINCEQCSSCRNRKTGHQICKFRKCEELKKKPSAALEKVMLPTGAAFRWFQ
modifications: Myc tag
B3: Idbf siRNA: mixture of two siRNAs targeting different sites of Idbf mRNA (SEQ ID NO: 12-15) (nucleic acid)
chain 1: UUGUAGGAAUCGAAAGACUUU
chain 2: AGUCUUUCGAUUCCUACAAUU
chain 3: GCAGUUUGCGCAGUCCACAUU
chain 4: UGUGGACUGCGCAAACUGCUU
modifications: listed as RNA, chemistry not given here

Legend:
[1] = test system: Wnt/β-catenin signaling; test: β-catenin immunoblotting of PTD-DBMP treated HEK293 cells; assay type: cell-based, human; settings: 1 μM or 4 μM PTD-DBMP, 12 hours, FIG. 22
Method: To investigate the effect of PTD-DBMP in the cells, HEK293 cells were incubated with 1 μM or 4 μM PTD-DBMP for 12 hours, and then the cell lysates were subjected into immunoblotting using anti-β-catenin, and anti-α-tubulin antibodies.

[2] = test system: Wnt/β-catenin pathway in MC3T3E1 cells; test: Immunocytochemistry of PTD-DBMP treated MC3T3E1 cells; assay type: cell-based; settings: 5 μM or 10 μM, 12 hours, FIG. 23
Method: PTD-DBMP (SEQ ID NO: 26) was treated into MC3T3E1 cells, and then the introduction and effect of PTD-DBMP were monitored by immunocytochemistry analyses. MC3T3E1 cells were incubated on gelatin-coated glasses for 1 day, and then 5 μM or 10 μM PTD-DBMP were treated on the incubated cells for 12 hours. The PTD-DBMP-treated cells were washed with PBS, and then fixed using a fixative solution (99% methanol and 1% formaldehyde). The fixed cells were permeabilized with 0.2% saponin solution, and then incubated with anti-β-catenin antibody (home-made; 1:100). The cells were incubated with Alexafluor 488 conjugated secondary antibody, and then the nucleus of cells were counterstained with DAPI.

[3] = test system: HEK293 cells; test: Introduction of FITC-labelled PTD-DBMP into HEK293 cells (fluorescence microscopy); assay type: cell-based, human; settings: 1 μM or 4 μM peptide, 3 hours, FIG. 21
Method: To confirm the introduction of two PTD-DBMP into cells, HEK293 cells were seeded and incubated on gelatin-coated glasses for one day, and then 1 μM or 4 μM peptide were treated on the cells. After 3 hours, the cells were washed with PBS, and then fixed using fixative solution (99% methanol and 1% formaldehyde). Nucleus of cells were counterstained using DAPI, and the cells were observed using ECLIPSE TE2000-U microscope.

[4] = test system: MC3T3E1 cells (osteoblast differentiation); test: RT-PCR of osteoblast differentiation markers in MC3T3E1 cells; assay type: cell-based; settings: 10 μM PTD-DBMP or 100 ng/ml Wnt3a, 2 and 4 days, FIG. 25
Method: To study the effect of PTD-DBMP on osteoblast differentiation, 100 ng/ml Wnt3a, or 10 μM PTD-DBMP was treated on MC3T3E1 cells. The cells were harvested after 2, and 4 days later, and then subjected into RT-PCR to monitor the amounts of ALP, Fgf18, RANKL, and HPRT mRNAs. The mRNA amounts of osteoblast differentiation markers (ALP, Fgf18, RANKL) were increased by PTD-DBMP treatment, as well as by Wnt3a treatment (FIG. 25).

[5] = test system: Wnt/β-catenin pathway; test: pTOPFLASH/pFOPFLASH luciferase reporter assay in MC3T3E1 cells; assay type: cell-based; settings: 5 μM PTD-DBMP or 100 ng/ml Wnt3a, 12 hours, FIG. 24
Method: To investigate the effect of PTD-DBMP treatment on Wnt/β-catenin pathway of MC3T3E1 cells, 0.5 μg of pTOPFLASH or pFOPFLASH with 50 ng of pCMV-β-Gal was transfected into the cells. After 12 hours, the transfected cells were treated with 100 ng/ml Wnt3a, or 5 μM PTD-DBMP, and then incubated for 12 hours. Then the cells were washed with PBS, and then lysed in Lysis Buffer (Promega). The cell lysates were mixed with Luciferase Substrate (Promega) to monitor the luciferase activities.

[6] = test system: Wnt/β-catenin pathway; test: Wnt3a treatment and Idbf overexpression in HEK293 cells (reporter assay, Idbf-Dvl-1 binding); assay type: cell-based, human; settings: for effect on Wnt/β-catenin pathway in HEK293 cells: 100 ng/ml Wnt3a 12 hours or 0.5 μg plasmid, FIG. 19
Method: Function of Idbf in Wnt/β-catenin pathway was also studied in HEK293 cells, which is a established human embryonic kidney cell-line. HEK293 cells were transfected with 0.5 μg pcDNA3.1 or pcDNA3.1-Idbf-Myc. For reporter assay, 0.5 μg pTOPFLASH or pFOPFLASH with 50 ng pCMV-β-Gal was co-transfected. The transfeced cells were incubated in α-MEM with or without 100 ng/ml Wnt3a for 12 hours. […] The enhancement of Idbf-Dvl-1 binding by Wnt3a treatment was also not observed (FIG. 20).

[7] = test system: Wnt/β-catenin pathway and osteoblast differentiation in MC3T3E1 cells; test: Idbf overexpression and Wnt3a treatment in MC3T3E1 cells, RT-PCR; assay type: cell-based; settings: FIG. 17C; for ALP and Fgf18 mRNA: 100 ng/ml Wnt3a 12 hours, or ascorbic acid and β-glycerol-phosphate 2 days
Method: Idbf was overexpressed in MC3T3E1 cells to investigate the function of Idbf in Wnt/β-catenin pathway and osteoblast differentiation. MC3T3E1 cells were transfected with pcDNA3.1 or pcDNA3.1-Idbf-Myc, and then transfected cells were incubated in α-MEM media containing 100 ng/ml Wnt3a for 12 hours or in α-MEM containing 50 mg/l ascorbic acid and 10 mM […] for 2 days. Wnt3a treatment results in mRNA increments of ALP and Fgf18, which were more significant than ascorbic acid and β-glycerol-phosphate treatment (FIG. 17C). […] However, the common target genes of Wnt/β-catenin pathway, cyclin D and c-myc were not regulated by Wnt3a or ascorbic acid and β-glycerol-phosphate treatment (FIG. 17C).

[8] = biological target: T1, Dvl-1 (Mus musculus, UniProt P51141); test: Idbf-Dvl-1 binding by immunoprecipitation with anti-Idbf antibody; settings: with or without Wnt3a, FIG. 18B (MC3T3E1 osteoblast)
T1 construct: endogenous in cells; host or cells: MC3T3E1 osteoblasts
T1 sequence (P51141 1-695): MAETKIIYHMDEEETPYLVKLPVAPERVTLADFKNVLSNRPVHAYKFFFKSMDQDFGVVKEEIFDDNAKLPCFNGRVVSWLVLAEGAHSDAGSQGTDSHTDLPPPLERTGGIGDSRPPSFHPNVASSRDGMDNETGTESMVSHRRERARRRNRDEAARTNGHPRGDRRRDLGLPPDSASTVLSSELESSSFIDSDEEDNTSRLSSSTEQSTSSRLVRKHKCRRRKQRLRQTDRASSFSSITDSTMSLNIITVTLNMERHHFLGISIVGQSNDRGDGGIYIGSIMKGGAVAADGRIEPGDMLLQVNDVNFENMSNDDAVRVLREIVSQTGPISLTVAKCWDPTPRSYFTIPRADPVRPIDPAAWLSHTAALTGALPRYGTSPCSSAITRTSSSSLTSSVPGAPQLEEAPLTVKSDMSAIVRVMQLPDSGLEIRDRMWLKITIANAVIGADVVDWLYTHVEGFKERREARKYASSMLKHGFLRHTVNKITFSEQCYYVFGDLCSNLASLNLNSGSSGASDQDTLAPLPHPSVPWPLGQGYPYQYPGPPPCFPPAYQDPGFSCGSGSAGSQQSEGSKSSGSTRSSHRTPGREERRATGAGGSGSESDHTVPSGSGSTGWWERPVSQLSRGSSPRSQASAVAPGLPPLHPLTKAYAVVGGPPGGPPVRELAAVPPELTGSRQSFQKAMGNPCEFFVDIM
Excerpt: To investigate the importance of Idbf-Dvl-1 binding in Idbf function, a mutant of Idbf, in which Dvl binding minimal peptide (DBMP; RKTGHQICKFRKC, SEQ ID NO: 4) was removed, was produced (pcDNA3.1-Idbf-ΔDBMP-Myc).
To monitor Idbf-Dvl-1 binding, cell lysates were subjected into immunoprecipitation using anti-Idbf antibody. Whole cell lysates were subjected into immunoblotting to detect the amounts of proteins, including β-catenin, α-tubulin, and Dvl-1.

[9] = test system: β-catenin; test: Idbf overexpression or knock-down in HEK293 cells: β-catenin immunoblot and TOPFLASH reporter; assay type: cell-based, human; settings: FIG. 5; for transcriptional activity of β-catenin: pTOPFLASH/pFOPFLASH luciferase; for protein level of β-catenin: transfection, immunoblotting
Method: 0.9 kb PCR product was restricted with XbaI and BamHI, and subcloned into a pcDNA3.1/myc His(−) vector (Invitrogen) (pcDNA3.1-Idbf-Myc). Idbf overexpression was performed by transfection of pcDNA3.1-Idbf-Myc into HEK293 cells using Lipofectamine plus reagent (Invitrogen) as the manufacturers' instruments.
Idbf knock-down was performed by transfection of Idbf siRNA into HEK293 cells using Lipofectamine plus reagent (Invitrogen) as the manufacturers' instruments. Idbf siRNA was synthesized using Silence™ siRNA Construction Kit (Ambion). To elevate the efficiency of knock-down, the mixture of two kinds of siRNAs, which are targeting different site of Idbf mRNA, were used.
For immunoblotting, cells were harvested, and lysed in RIPA buffer (50 mM Tris pH 7.5, 150 mM NaCl, 1 mM EDTA, and 1% Triton X-100). All chemicals were purchased from Sigma-Aldrich.
To detect proteins, whole cell lysates or immunoprecipitants were subjected into immunoblotting using anti-β-catenin, anti-Myc, or anti-α-tubulin antibodies. To monitor the transcriptional activity of β-catenin, 0.5 μg of pTOPFLASH or pFOPFLASH (kind gill from Dr. B. Vogelstein and Dr. K. Kinzler in Johns Hopkins Oncology Center, Baltimore, Md.) with 50 ng of pCMV-β-Gal was transfected into HEK293 cells. The luciferease activities, which indicate the transcriptional activity of β-catenin, were normalized by β-galactosidase activities, which show the efficiency of transfection. […] Oppositely, the protein level of β-catenin and its transcriptional activity were increased by Idbf knock-down (FIG. 5B). Error bars in FIG. 5 indicates standard deviation. WCL and IP are abbreviations of whole cell lysate and immunoprecipitation, respectively.

| Molecule | amount of β-catenin [1] | activation of Wnt/β-catenin pathway (β-catenin in nucleus) [2] | introduction of peptide into cells (green fluorescence by FITC on nucleus and cytosol) [2] | introduction of peptide into cells (green fluorescence in nucleus and cytosol) [3] | mRNA amounts of osteoblast differentiation markers (ALP, Fgf18, RANKL) [4] | activation of Wnt/β-catenin pathway (luciferase activity normalized by β-galactosidase) [5] | effect on Wnt/β-catenin pathway in HEK293 cells [6] | enhancement of Idbf-Dvl-1 binding ([6]; Wnt3a treatment, FIG. 20) | cyclin D and c-myc (common target genes of Wnt/β-catenin pathway) ([7]; 100 ng/ml Wnt3a 12 hours) | ALP and Fgf18 mRNA [7] | binding to Dvl-1 [8] | transcriptional activity of β-catenin [9] | protein level of β-catenin [9] |
| --- | --- | --- | --- | --- | --- | --- | --- | --- | --- | --- | --- | --- | --- |
| PTD-DBMP: PTD and glycine linker on the amino terminus of DBMP, FITC on the carboxyl terminus; two peptides in section 7, SEQ ID NO: 26 in section 8 (RRRRRRRRGGGGRKTGHQICKFRKCK-{FITC′}; cysteine pairing not given here) | increased | accumulation of β-catenin (red) in nucleus of the cells | successfully introduced into the cells | successfully introduced into the cells | increased | as significant as the activation by Wnt3a treatment | – | – | – | – | – | – | – |
| B1 | – | – | – | – | increased | activation | very marginal | not observed | not regulated | increments | – | – | – |
| B2 | – | – | – | – | – | – | very marginal | – | – | suppressed increment | binds to Dvl-1 in Wnt3a-dependent manner | reduced | reduced |
| B3 | – | – | – | – | – | – | – | – | – | – | – | increased | increased |
